Test results as given in patent US8974802B2, “Medicament for the treatment of cancer of the pancreas” (Erytech Pharma, priority 2007, dated 2015).

Assays:
[1] = system: Mia PaCa-2 human pancreatic tumour cells; experiment: Growth inhibition of human pancreatic tumours (Mia PaCa-2) in nude mice; format: in vivo; settings: after 57 days, L-Aspa RBC single 200 IU/kg i.v., gemcitabine 4 x 60 mg/kg i.v.
Description: The purpose of this experiment is to inject L-Aspa RBC into mice bearing human pancreatic tumours and to observe a tumour growth inhibition. A cell line sensitive to L-asparaginase in vitro, and deficient in L-asparagine synthase, was selected: Mia PaCa-2. To study the tumour growth inhibition after the injection of L-Aspa RBC, an in vivo protocol was set up with 4 groups of 12 mice. A reference treatment for cancer of the pancreas, gemcitabine, is included in the protocol. Human pancreatic tumour cells (Mia PaCa-2) in exponential growth phase (origin ATCC: American Type Culture Collection) were subjected to tryptic digestion, then counted and washed before finally being resuspended in a DMEM serum-free medium in order for them to be injected subcutaneously into 48 athymic nude/nude mice. The 48 athymic nude/nude (nude balb/c) mice, aged 5-6 weeks and between 18 and 22 g in weight, were supplied by Harlan (France). The animals were kept for 7 days in a specialized SPF (specific-pathogen-free) unit before the treatment. The 48 mice were divided randomly into 4 groups of 12 mice. […]

[2] = system: PANC-1 human pancreatic tumor (clone no. 6sC); experiment: In vivo anti-tumoral study in mice bearing pancreatic tumor PANC-1; settings: day 43, L-aspa RBC single 200 IU/kg i.v., gemcitabine 4 x 80 mg/kg i.v.
Description: The objective of this study was to assess the antitumoral effects of L-asparaginase encapsulated in red blood cells (L-aspa RBC) administered in a human pancreatic tumor (PANC-1) xenograft model.
In this study, 4 groups of 15 mice received either L-asparaginase encapsulated in red blood cells, gemcitabine (reference treatment in pancreatic cancer), a combination of both agents or control item. A last group of 10 mice received no treatment and was used as control group.
A Log-growing culture of human pancreatic tumor cells, PANC-1 (obtained from ECCAC, UK), was subcloned and the clone no.
Clone no 6sC was trypsinized, counted, washed and resuspended in serum-free DMEM medium for sub-cutaneous injection to 100 nu/nu athymic mice.
Hundred athymic Nude mice of 5 week-old, weighing 20 g+/−3 g were supplied by Harlan France. […]
Four days after cell implantation, tumor volumes were measured and ranked according to size and median was calculated. […]
Tumor measurements were recorded 3 times a week (on Mondays, Wednesday and Friday) during 43 days.
The relative tumor volume is calculated by dividing the tumor volume at a given day by the tumor volume before treatment avoiding the bias due to statistical difference in tumor volume between groups on the day of injection.

MIA Paca-2 cells [3] = settings: nude mice; PEG-asparaginase 12.5 or 25 IU/g per day i/p for 14 days; gemcitabine 80 mg/kg i/p days 1, 4, 7, 10; cited from earlier work
MIA Paca-2 cells [4] = settings: PEG-asparaginase 0.8 kIU/kg; gemcitabine 80 mg/kg; mice; cited from earlier work
MIA Paca-2 cells [5] = settings: cited from earlier work
PANC-1 cells = settings: cited from earlier work
[6] = system: human pulmonary and melanoma cells; settings: Yunis et al. 1977; cited from earlier work
pancreatic carcinoma = settings: cited from earlier work
[7] = direct injection; cited from earlier work
BxPC-3 cells = settings: 10 IU/ml; Denis et al. 1999; cited from earlier work
PANC 10.05 = settings: AACR 2006; cited from earlier work
CFPAC-2 = settings: AACR 2006; cited from earlier work
AsPC-1 = settings: AACR 2006; cited from earlier work
solid tumor = settings: trial suspended; cited from earlier work

Molecule: Nc1ccn([C@@H]2O[C@H](CO)[C@@H](O)C2(F)F)c(=O)n1 [gemcitabine]
- tumour volume [1]: 1353±1016 mm^3
- mouse survival (mice remaining / still alive) [2]: 20%
- relative tumor volume ([2]; tumor volume divided by volume before treatment): 51.8±17.1
- cell growth inhibition in vivo (MIA Paca-2 cells [3]): 63.5%
- decrease of tumour volume (MIA Paca-2 cells [4]): 29%

B1: asparaginase (protein, UniProt P00805 23-348, looked up)
L-asparaginase 2: LPNITILATGGTIAGGGDSATKSNYTVGKVGVENLVNAVPQLKDIANVKGEQVVNIGSQDMNDNVWLTLAKKINTDCDKTDGFVITHGTDTMEETAYFLDLTVKCDKPVVMVGAMRPSTSMSADGPFNLYNAVVTAADKASANRGVLVVMNDTVLDGRDVTKTNTTDVATFKSVNYGPLGYIHNGKIDYQRTPARKHTSDTPFDVSKLNELPKVGIVYNYANASDLPAKALVDAGYDGIVSAGVGNGNLYKSVFDTLATAAKTGTAVVRSSRVPTGATTQDAEVDDAKYGFVASGTLNPQKARVLLQLALTQTKDPQQIQQIFNQY
notes: bacterial enzyme, CAS number 9015-68-3, hydrolyses and depletes asparagine
- inhibition of cell growth (MIA Paca-2 cells [5]; 0.0025 IU/ml, Wu et al. 1982): no effect
- effect on the growth of the cells (MIA Paca-2 cells [5]; 0.1 IU/ml, Yunis et al. 1977): significant effect on the growth of the cells
- effect on cell growth (MIA Paca-2 cells [5]; 0.5 and 1 IU/ml, Yunis et al. 1977): total inhibition of cell growth with cell death
- inhibition of cell growth (PANC-1 cells; 0.0025 IU/ml, Wu et al. 1982): no effect
- effect on cell growth (PANC-1 cells; 1 IU/ml, Yunis et al. 1977): has an effect
- effect on growth [6]: no effect
- side-effects (pancreatic carcinoma; IV 1000 IU/kg/day, ten patients with inoperable pancreatic cancer, treatment stopped early): Serious side-effects appeared rapidly
- clinical response (pancreatic carcinoma; two of the patients, Lessner 1977): no response
- allergic reaction incidence [7]: 27%

B2: PEG-asparaginase: pegylated form of asparaginase (Oncaspar, Enzon Pharmaceuticals) (protein, UniProt P00805 23-348, looked up)
L-asparaginase 2: B1 L-asparaginase 2
modifications: PEG
- cell growth inhibition (MIA Paca-2 cells [5]; 1 IU/ml, Denis et al. 1999): 61%
- in vitro cytotoxicity (IC50) (MIA Paca-2 cells [5]; AACR 2006): 0.66 IU/ml
- IC50 (MIA Paca-2 cells [5]; Denis et al. 1999): 0.13 IU/ml
- cell growth inhibition (PANC-1 cells; 1 IU/ml, Denis et al. 1999): 100%
- in vitro cytotoxicity (IC50) (PANC-1 cells; AACR 2006): 0.27 IU/ml
- IC50 (PANC-1 cells; Denis et al. 1999): 0.25 IU/ml
- cell growth inhibition (BxPC-3 cells): 51%
- in vitro cytotoxicity (IC50) (PANC 10.05): 0.46 IU/ml
- in vitro cytotoxicity (IC50) (CFPAC-2): greater than 20 IU/ml
- in vitro cytotoxicity (IC50) (AsPC-1): greater than 20 IU/ml
- cell growth inhibition in vivo (MIA Paca-2 cells [3]): 59%
- decrease of tumour volume (MIA Paca-2 cells [4]): 14%
- clinical trial outcome (solid tumor): toxicity was reached before efficacy
